Here are results for two molecules from PMC9929644 (The EMBO Journal, 2023).

The Kd is the concentration at which binding is half-saturated. A higher Kd goes with a looser complex.

One experiment has as its target GST‐LMO4 (UniProt P61968). Briefly: ITC.
A further experiment concerns the target T1, MBP‐Jacob‐262‐532 (UniProt Q9EPI6 262-532).
T1 sequence (looked up): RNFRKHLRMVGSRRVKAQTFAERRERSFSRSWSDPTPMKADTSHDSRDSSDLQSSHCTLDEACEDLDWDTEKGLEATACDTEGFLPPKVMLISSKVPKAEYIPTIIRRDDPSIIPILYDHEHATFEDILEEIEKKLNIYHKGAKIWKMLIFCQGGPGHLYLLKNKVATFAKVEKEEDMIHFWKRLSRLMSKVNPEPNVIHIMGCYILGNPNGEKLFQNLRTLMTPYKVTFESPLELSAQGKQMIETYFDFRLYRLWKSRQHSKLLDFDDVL
Nature of the experiment: pull-down.

Sequence of Jacob (protein of the ITC experiment) (Q9EPI6 whole entry): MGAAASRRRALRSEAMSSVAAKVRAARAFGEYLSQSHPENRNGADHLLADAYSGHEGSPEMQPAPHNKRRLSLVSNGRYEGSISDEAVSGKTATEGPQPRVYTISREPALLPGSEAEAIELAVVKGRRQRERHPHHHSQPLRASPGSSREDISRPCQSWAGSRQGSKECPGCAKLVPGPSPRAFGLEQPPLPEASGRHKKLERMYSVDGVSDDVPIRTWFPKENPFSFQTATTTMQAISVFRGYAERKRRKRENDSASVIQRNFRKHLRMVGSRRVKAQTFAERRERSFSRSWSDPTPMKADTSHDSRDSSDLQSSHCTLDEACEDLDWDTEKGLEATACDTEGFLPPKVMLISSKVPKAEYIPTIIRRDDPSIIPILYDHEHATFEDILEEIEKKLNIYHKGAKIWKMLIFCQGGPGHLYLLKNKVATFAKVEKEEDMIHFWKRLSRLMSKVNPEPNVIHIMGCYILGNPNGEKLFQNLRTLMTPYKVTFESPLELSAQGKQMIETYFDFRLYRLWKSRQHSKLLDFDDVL

“Jacob (protein of the ITC experiment) (from UniProt Q9EPI6 1-532) (natural protein)” displayed a Kd in the experiment with GST‐LMO4 of 370 nM.
Take REAARECRRKKKEYVKCLENRVAVLENQNKTLIEELKALKDLYCHKSD (domain or fragment, UniProt P15337-1 294-341, looked up) [bZIP domain of CREB (His‐SUMO‐CREB‐294‐341)]: the binding result with MBP‐Jacob‐262‐532 is recorded as “binds”.
